Experimental data taken from publication doi:10.1101/2024.11.29.625639.

Molecular target: HCMV gHgLgO trimer with gO249 mutant, from virions (human cytomegalovirus, strain TB40/E (TB40-BAC4))
Assay: co-IP + pull-down

HCMV glycoprotein gB, from virions (natural protein)
fold change of the interaction with gB against gHgLgOWT: 4 fold
